The values that follow are results of earlier work, collected in US9133440B2, “Generation of new pancreatic beta cells” (priority 2012, dated 2015).

Series [1] concerns STZ-rendered diabetic mice. The following applies: cited from earlier work.
Series [2] deals with human pancreatic ductal tissue devoid of islets. The conditions noted are these: cited from earlier work.

B1: Reg3a protein: human Reg3a gene protein given to ductal tissue and STZ diabetic mice in the inventor's earlier study (protein, listed as Homo sapiens)
chain: MLPPMALPSVSWMLLSCLMLLSQVQGEEPQRELPSARIRCPKGSKAYGSHCYALFLSPKSWTDADLACQKRPSGNLVSVLSGAEGSFVSSLVKSIGNSYSYVWIGLHDPTQGTEPNGEGWEWSSSDVMNYFAWERNPSTISSPGHCASLSRSTAFLRWKDYNCNVRLPYVCKFTD
For the molecule B1, in series [1] (STZ-rendered diabetic mice), the “rise in total beta cells staining insulin” value was 3 fold. The fasting glucose in series [1] (overnight fast, morning of day 39 of treatment, P=0.020 vs placebo) was 111.00 ± 11.4 mg/dL. Moreover, the insulin concentrations entry in series [2] was “significant increase”.
